Laboratory results: paper doi:10.1101/790667 (bioRxiv, 2019)
* marks the point of attachment. Dansyl = CN(C)c1cccc2c(S(=O)(=O)*)cccc12

T1: human CASK PDZ domain (residues 487-572) (human, UniProt O14936 487-572)
T1 sequence (looked up): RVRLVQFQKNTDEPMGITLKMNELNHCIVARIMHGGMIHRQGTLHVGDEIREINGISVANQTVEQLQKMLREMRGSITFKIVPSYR


Target: T1, human CASK PDZ domain (residues 487-572)
Test: differential scanning fluorimetry

| binding result | Binder |
| --- | --- |
| binds | Dansyl-ENQKEYFF-OH (SMILES CN(C)c1cccc2c(S(=O)(=O)N[C@@H](CCC(=O)O)C(=O)N[C@@H](CC(N)=O)C(=O)N[C@@H](CCC(N)=O)C(=O)N[C@@H](CCCCN)C(=O)N[C@@H](CCC(=O)O)C(=O)N[C@@H](Cc3ccc(O)cc3)C(=O)N[C@@H](Cc3ccccc3)C(=O)N[C@@H](Cc3ccccc3)C(=O)O)cccc12) [Caspr4 peptide (residues 1,301-1,308)] |
| binds | Dansyl-NKDKEYYV-OH (SMILES CC(C)[C@H](NC(=O)[C@H](Cc1ccc(O)cc1)NC(=O)[C@H](Cc1ccc(O)cc1)NC(=O)[C@H](CCC(=O)O)NC(=O)[C@H](CCCCN)NC(=O)[C@H](CC(=O)O)NC(=O)[C@H](CCCCN)NC(=O)[C@H](CC(N)=O)NS(=O)(=O)c1cccc2c(N(C)C)cccc12)C(=O)O) [Neurexin peptide (residues 1,470-1,477)] |
| binds | Dansyl-TKQEEFYA-OH (SMILES C[C@H](NC(=O)[C@H](Cc1ccc(O)cc1)NC(=O)[C@H](Cc1ccccc1)NC(=O)[C@H](CCC(=O)O)NC(=O)[C@H](CCC(=O)O)NC(=O)[C@H](CCC(N)=O)NC(=O)[C@H](CCCCN)NC(=O)[C@@H](NS(=O)(=O)c1cccc2c(N(C)C)cccc12)[C@@H](C)O)C(=O)O) [Syndecan1 peptide (residues 303-310)] |
